T1: FcγRIIb (human, UniProt P31994 43-217)
T1 construct: extracellular domain; also called FcgRIIb; 2b
T1 sequence (looked up): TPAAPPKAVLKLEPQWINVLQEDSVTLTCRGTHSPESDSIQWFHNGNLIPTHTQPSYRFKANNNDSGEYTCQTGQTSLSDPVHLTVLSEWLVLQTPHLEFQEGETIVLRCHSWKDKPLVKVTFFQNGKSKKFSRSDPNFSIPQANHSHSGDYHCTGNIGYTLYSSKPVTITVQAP

T2: FcγRIIa R (human FcγRIIa, allotype R, Arg at position 131), extracellular domain with C-terminal His tag (human, UniProt P12318 34-217)
T2 construct: extracellular domain; expressed in FreeStyle293 cells; analyte in Biacore; also called 2aR; FcgRIIa R
T2 sequence (looked up): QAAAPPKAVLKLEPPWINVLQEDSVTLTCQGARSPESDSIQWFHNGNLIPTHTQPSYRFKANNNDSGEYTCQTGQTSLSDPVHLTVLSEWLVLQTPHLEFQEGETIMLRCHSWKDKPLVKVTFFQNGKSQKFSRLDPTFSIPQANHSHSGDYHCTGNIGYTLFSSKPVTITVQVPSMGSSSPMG


Experiments:
FcγRIIb = biological target: T1, FcγRIIb; assay: SPR (Biacore), relative to GpH7-A5/GpH7-B3/GpL16-k0 = 100
Protocol: (§1) The heterodimerized antibodies He Abs in which one of the H chains was introduced with an alteration were assayed for their binding activities to each activating FcγR and inhibitory FcγR according to the method described in Example 4. […] The activating FcγRs in FIGS. 26, 27, 28, and 29 are FcγRIa, FcγRIIa (R), FcγRIIa (H), and FcγRIIIa, respectively.
(§2) Analysis of interaction between objective antibody and the FcγR was carried out using Biacore T100 (GE Healthcare). HBS-EP+ (GE Healthcare) was used as the running buffer, and the measurement temperature was set to 25° C. Chips produced by immobilizing the antigen peptide by the amine coupling method to a Series S Sencor Chip CM5 (GE Healthcare), or alternatively, chips produced by allowing preliminarily biotinylated antigen peptides to interact with and immobilize onto a Series S Sensor Chip SA (certified) (GE Healthcare) were used. Antibodies of interest were captured onto an antigen peptide-immobilized chip, and allowed to interact to each FcγR diluted with running buffer. To regenerate and repeatedly use the chip, the antibodies captured on the chip were washed off by reacting 10 mM glycine-HCl, pH 1.5.

FcγRIa [1] = biological target: T3, FcγRIa (human, UniProt P12314 16-292); assay: as above
T3 construct: extracellular domain; also called FcgRI; FcgRIa
Protocol: as §1, §2

FcγRIa [2] = biological target: T3, FcγRIa; assay: SPR (Biacore); He/Con_1a (FcgRIa) divided by He/Con_2b (FcgRIIb)
Protocol: as §1, §2

[3] = biological target: T2, FcγRIIa R (human FcγRIIa, allotype R, …); assay: SPR (Biacore), relative binding vs GpH7-A5/GpH7-B3/GpL16-k0
Protocol: as §2
The FcγR-binding activity of each antibody was assessed primarily using as an indicator the FcγR-binding activity and dissociation constant for FcγR.

T3 sequence (P12314 16-292): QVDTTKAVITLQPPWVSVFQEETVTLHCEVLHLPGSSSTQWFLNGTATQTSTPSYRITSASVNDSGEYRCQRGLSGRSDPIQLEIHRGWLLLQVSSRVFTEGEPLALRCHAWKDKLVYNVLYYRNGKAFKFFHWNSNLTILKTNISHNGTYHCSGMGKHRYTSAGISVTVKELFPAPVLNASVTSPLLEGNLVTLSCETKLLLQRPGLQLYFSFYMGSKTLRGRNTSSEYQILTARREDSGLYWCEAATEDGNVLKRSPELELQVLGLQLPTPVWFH

Row | Binder | He/Con_2b (IIb binding) (FcγRIIb) | He/Con_1a (Ia binding) (FcγRIa [1]) | Ia/IIb He_1a/2b (FcγRIa [2]) | He/Con_2aR [3]
1 | GpH7-A5/GpH7-B3 variant Y300_01G/GpL16-k0 (antibody, human IgG1, kappa, heterodimerized IgG1, one H chain mutated; also called He Ab) heavy 1: not shown heavy 2: not shown light: DIVMTQSPLSLPVTPGEPASISCQASESLVHSNRNTYLHWYLQKPGQSPQLLIYKVSNRFSGVPDRFSGSGSGTDFTLKISRVEAEDVGVYYCSQNTHVPPTFGQGTKVEIERTVAAPSVFIFPPSDEQLKSGTASVVCLLNNFYPREAKVQWKVDNALQSGNSQESVTEQDSKDSTYSLSSTLTLSKADYEKHKVYACEVTHQGLSSPVTKSFNRGEC | 48.4 relative (control = 100) | 116 relative (control = 100) | 2.4 | –
2 | GpH7-A5/GpH7-B3 variant A327_13S/GpL16-k0 (antibody, human IgG1, kappa, heterodimerized IgG1, one H chain mutated; also called He Ab) heavy 1: not shown heavy 2: not shown light: DIVMTQSPLSLPVTPGEPASISCQASESLVHSNRNTYLHWYLQKPGQSPQLLIYKVSNRFSGVPDRFSGSGSGTDFTLKISRVEAEDVGVYYCSQNTHVPPTFGQGTKVEIERTVAAPSVFIFPPSDEQLKSGTASVVCLLNNFYPREAKVQWKVDNALQSGNSQESVTEQDSKDSTYSLSSTLTLSKADYEKHKVYACEVTHQGLSSPVTKSFNRGEC | 79.5 relative (control = 100) | 102 relative (control = 100) | 1.29 | –
3 | GpH7-A5/GpH7-B3 variant Y296_19Q/GpL16-k0 (antibody, human IgG1, kappa, heterodimerized antibody, mutation in one H chain only; also called He Ab) heavy 1: not shown heavy 2: not shown light: DIVMTQSPLSLPVTPGEPASISCQASESLVHSNRNTYLHWYLQKPGQSPQLLIYKVSNRFSGVPDRFSGSGSGTDFTLKISRVEAEDVGVYYCSQNTHVPPTFGQGTKVEIERTVAAPSVFIFPPSDEQLKSGTASVVCLLNNFYPREAKVQWKVDNALQSGNSQESVTEQDSKDSTYSLSSTLTLSKADYEKHKVYACEVTHQGLSSPVTKSFNRGEC | – | – | – | 102 relative, control = 100
4 | GpH7-A5/GpH7-B3 variant Y296_16H/GpL16-k0 (antibody, human IgG1, kappa, heterodimerized antibody, mutation in one H chain only; also called He Ab) heavy 1: not shown heavy 2: not shown light: DIVMTQSPLSLPVTPGEPASISCQASESLVHSNRNTYLHWYLQKPGQSPQLLIYKVSNRFSGVPDRFSGSGSGTDFTLKISRVEAEDVGVYYCSQNTHVPPTFGQGTKVEIERTVAAPSVFIFPPSDEQLKSGTASVVCLLNNFYPREAKVQWKVDNALQSGNSQESVTEQDSKDSTYSLSSTLTLSKADYEKHKVYACEVTHQGLSSPVTKSFNRGEC | – | – | – | 105 relative, control = 100
5 | GpH7-A5/GpH7-B3 variant Y300_18N/GpL16-k0 (antibody, human IgG1, kappa, heterodimerized antibody, mutation in one H chain only; also called He Ab) heavy 1: not shown heavy 2: not shown light: DIVMTQSPLSLPVTPGEPASISCQASESLVHSNRNTYLHWYLQKPGQSPQLLIYKVSNRFSGVPDRFSGSGSGTDFTLKISRVEAEDVGVYYCSQNTHVPPTFGQGTKVEIERTVAAPSVFIFPPSDEQLKSGTASVVCLLNNFYPREAKVQWKVDNALQSGNSQESVTEQDSKDSTYSLSSTLTLSKADYEKHKVYACEVTHQGLSSPVTKSFNRGEC | – | – | – | 100 relative, control = 100
6 | GpH7-A5/GpH7-B3 variant A327_06M/GpL16-k0 (antibody, human IgG1, kappa, heterodimerized IgG1, one H chain mutated; also called He Ab) heavy 1: not shown heavy 2: not shown light: DIVMTQSPLSLPVTPGEPASISCQASESLVHSNRNTYLHWYLQKPGQSPQLLIYKVSNRFSGVPDRFSGSGSGTDFTLKISRVEAEDVGVYYCSQNTHVPPTFGQGTKVEIERTVAAPSVFIFPPSDEQLKSGTASVVCLLNNFYPREAKVQWKVDNALQSGNSQESVTEQDSKDSTYSLSSTLTLSKADYEKHKVYACEVTHQGLSSPVTKSFNRGEC | 59.5 relative (control = 100) | 103 relative (control = 100) | 1.74 | –
7 | GpH7-A5/GpH7-B3 variant Y296_13S/GpL16-k0 (antibody, human IgG1, kappa, heterodimerized antibody, mutation in one H chain only; also called He Ab) heavy 1: not shown heavy 2: not shown light: DIVMTQSPLSLPVTPGEPASISCQASESLVHSNRNTYLHWYLQKPGQSPQLLIYKVSNRFSGVPDRFSGSGSGTDFTLKISRVEAEDVGVYYCSQNTHVPPTFGQGTKVEIERTVAAPSVFIFPPSDEQLKSGTASVVCLLNNFYPREAKVQWKVDNALQSGNSQESVTEQDSKDSTYSLSSTLTLSKADYEKHKVYACEVTHQGLSSPVTKSFNRGEC | – | – | – | 102 relative, control = 100
8 | GpH7-A5/GpH7-B3 variant Y296_20W/GpL16-k0 (antibody, human IgG1, kappa, heterodimerized antibody, mutation in one H chain only; also called He Ab) heavy 1: not shown heavy 2: not shown light: DIVMTQSPLSLPVTPGEPASISCQASESLVHSNRNTYLHWYLQKPGQSPQLLIYKVSNRFSGVPDRFSGSGSGTDFTLKISRVEAEDVGVYYCSQNTHVPPTFGQGTKVEIERTVAAPSVFIFPPSDEQLKSGTASVVCLLNNFYPREAKVQWKVDNALQSGNSQESVTEQDSKDSTYSLSSTLTLSKADYEKHKVYACEVTHQGLSSPVTKSFNRGEC | – | – | – | 110 relative, control = 100

More lines, now with the values ahead:

Row | He/Con_2b (IIb binding) (FcγRIIb) | He/Con_1a (Ia binding) (FcγRIa [1]) | Ia/IIb He_1a/2b (FcγRIa [2]) | He/Con_2aR [3] | Binder
9 | 69.3 relative (control = 100) | 99.3 relative (control = 100) | 1.43 | – | GpH7-A5/GpH7-B3 variant A327_05P/GpL16-k0 (antibody, human IgG1, kappa, heterodimerized IgG1, one H chain mutated; also called He Ab) heavy 1: not shown heavy 2: not shown light: DIVMTQSPLSLPVTPGEPASISCQASESLVHSNRNTYLHWYLQKPGQSPQLLIYKVSNRFSGVPDRFSGSGSGTDFTLKISRVEAEDVGVYYCSQNTHVPPTFGQGTKVEIERTVAAPSVFIFPPSDEQLKSGTASVVCLLNNFYPREAKVQWKVDNALQSGNSQESVTEQDSKDSTYSLSSTLTLSKADYEKHKVYACEVTHQGLSSPVTKSFNRGEC
10 | – | 86.7 relative (control = 100) | 9.64 | – | GpH7-A5/GpH7-B3 variant A327_12R/GpL16-k0 (antibody, human IgG1, kappa, heterodimerized IgG1, one H chain mutated; also called He Ab) heavy 1: not shown heavy 2: not shown light: DIVMTQSPLSLPVTPGEPASISCQASESLVHSNRNTYLHWYLQKPGQSPQLLIYKVSNRFSGVPDRFSGSGSGTDFTLKISRVEAEDVGVYYCSQNTHVPPTFGQGTKVEIERTVAAPSVFIFPPSDEQLKSGTASVVCLLNNFYPREAKVQWKVDNALQSGNSQESVTEQDSKDSTYSLSSTLTLSKADYEKHKVYACEVTHQGLSSPVTKSFNRGEC
11 | 12.5 relative (control = 100) | 86.1 relative (control = 100) | 6.87 | – | GpH7-A5/GpH7-B3 variant A327_11K/GpL16-k0 (antibody, human IgG1, kappa, heterodimerized IgG1, one H chain mutated; also called He Ab) heavy 1: not shown heavy 2: not shown light: DIVMTQSPLSLPVTPGEPASISCQASESLVHSNRNTYLHWYLQKPGQSPQLLIYKVSNRFSGVPDRFSGSGSGTDFTLKISRVEAEDVGVYYCSQNTHVPPTFGQGTKVEIERTVAAPSVFIFPPSDEQLKSGTASVVCLLNNFYPREAKVQWKVDNALQSGNSQESVTEQDSKDSTYSLSSTLTLSKADYEKHKVYACEVTHQGLSSPVTKSFNRGEC
12 | 63.7 relative (control = 100) | 99.1 relative (control = 100) | 1.56 | – | GpH7-A5/GpH7-B3 variant A327_04F/GpL16-k0 (antibody, human IgG1, kappa, heterodimerized IgG1, one H chain mutated; also called He Ab) heavy 1: not shown heavy 2: not shown light: DIVMTQSPLSLPVTPGEPASISCQASESLVHSNRNTYLHWYLQKPGQSPQLLIYKVSNRFSGVPDRFSGSGSGTDFTLKISRVEAEDVGVYYCSQNTHVPPTFGQGTKVEIERTVAAPSVFIFPPSDEQLKSGTASVVCLLNNFYPREAKVQWKVDNALQSGNSQESVTEQDSKDSTYSLSSTLTLSKADYEKHKVYACEVTHQGLSSPVTKSFNRGEC
13 | – | – | – | 104 relative, control = 100 | GpH7-A5/GpH7-B3 variant Y296_18N/GpL16-k0 (antibody, human IgG1, kappa, heterodimerized antibody, mutation in one H chain only; also called He Ab) heavy 1: not shown heavy 2: not shown light: DIVMTQSPLSLPVTPGEPASISCQASESLVHSNRNTYLHWYLQKPGQSPQLLIYKVSNRFSGVPDRFSGSGSGTDFTLKISRVEAEDVGVYYCSQNTHVPPTFGQGTKVEIERTVAAPSVFIFPPSDEQLKSGTASVVCLLNNFYPREAKVQWKVDNALQSGNSQESVTEQDSKDSTYSLSSTLTLSKADYEKHKVYACEVTHQGLSSPVTKSFNRGEC
14 | 63.1 relative (control = 100) | 98.6 relative (control = 100) | 1.56 | – | GpH7-A5/GpH7-B3 variant A327_08L/GpL16-k0 (antibody, human IgG1, kappa, heterodimerized IgG1, one H chain mutated; also called He Ab) heavy 1: not shown heavy 2: not shown light: DIVMTQSPLSLPVTPGEPASISCQASESLVHSNRNTYLHWYLQKPGQSPQLLIYKVSNRFSGVPDRFSGSGSGTDFTLKISRVEAEDVGVYYCSQNTHVPPTFGQGTKVEIERTVAAPSVFIFPPSDEQLKSGTASVVCLLNNFYPREAKVQWKVDNALQSGNSQESVTEQDSKDSTYSLSSTLTLSKADYEKHKVYACEVTHQGLSSPVTKSFNRGEC
15 | – | – | – | 103 relative, control = 100 | GpH7-A5/GpH7-B3 variant Y296_14T/GpL16-k0 (antibody, human IgG1, kappa, heterodimerized antibody, mutation in one H chain only; also called He Ab) heavy 1: not shown heavy 2: not shown light: DIVMTQSPLSLPVTPGEPASISCQASESLVHSNRNTYLHWYLQKPGQSPQLLIYKVSNRFSGVPDRFSGSGSGTDFTLKISRVEAEDVGVYYCSQNTHVPPTFGQGTKVEIERTVAAPSVFIFPPSDEQLKSGTASVVCLLNNFYPREAKVQWKVDNALQSGNSQESVTEQDSKDSTYSLSSTLTLSKADYEKHKVYACEVTHQGLSSPVTKSFNRGEC

— patent US20180155451A1 (published 2018)
